The values that follow come from patent US20230126689A1 (GO THERAPEUTICS, published 2023).

Ends that are not written are not given here. * marks the point of attachment. αGalNAc = CC(=O)N[C@@H]1[C@@H](O)[C@@H](O)[C@@H](CO)O[C@@H]1* A value given as a limit tells only on which side of the number the result lay.

Assay [1] has as its target T1, CD44v6 glycopeptide … with O-linked GalNAc on threonine 5 and serine 12 (human, not fully specified (residue 12)).
T1 construct: Synthetic 19-residue glycopeptide made by FMOC synthesis; also called CD44v6-Tn(S + T); Tn-glycosylated CD44v6 glycopeptide
T1 peptide: GYRQT(αGalNAc)PKEDSHSTTGTAAA
As to the kind of experiment: hybridoma screening (ELISA, flow cytometry, immunofluorescence).

Assay [2] concerns the target T1, CD44v6 glycopeptide … with O-linked …. As to the kind of experiment: SPR (Biacore); Biacore, not Octet.
Assay [3] addresses T2, CD44v6 peptide glycoform CD44v6-Tn(S) (human, not fully specified (residue 12); also: GalNAc (Tn) on serine only, position not given here).
T2 construct: That the serine is Ser 12 is inferred from the two-site glycopeptide
T2 peptide: GYRQTPKEDSHSTTGTAAA
As to the kind of experiment: BLI (Octet); Octet; Tn(S) glycoform. In general terms: In BLI a coated tip is dipped into the sample, and binding shifts an interference pattern.

Assay [4] deals with T1, CD44v6 glycopeptide … with O-linked …. As to the kind of experiment: BLI (Octet), apparent affinity with avidity factored in.
Assay [5] deals with T3, Tn-glycosylated MUC1 (UniProt P15941 138-197, limits assumed, Tn (GalNAc) glycosylated; sites not stated for the material used).
T3 construct: also called MUC1-Tn
T3 sequence (P15941 138-197 limits assumed): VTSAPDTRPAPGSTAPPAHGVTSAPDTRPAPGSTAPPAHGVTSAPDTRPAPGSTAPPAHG
In words: Biacore (surface plasmon resonance); row MUC1-Tn, column Affinity (Biacore). For orientation: SPR reads the build-up and loss of mass on a sensor chip optically.

B1: 18G9 monoclonal antibody (antibody, V domains shown)
VH: DVQLVESGGGLVQPGGSRKLSCAASGFTFSSFGMHWVRQAPEKGLEWVAYISSGSSTIYYADTVKGRFTISRDNPKNTLFLQMTSLRSEDTAMYYCARGSYRAMDYWGQGTSVTVSS
VL: QIVLTQSPALMSASPGEKVTMTCSASSSVNYMFWYQQKPRSSPKPWIYLTSNLASGVPARFSGSGSGTSYSLTISSMEAEDAATYYCQLWSSNPFTFGSGTKLEIK
notes: Murine hybridoma antibody
B1: the binding result in assay [1] is listed as “binds”.

B2: 4C8 monoclonal antibody (antibody, V domains shown)
VH: QVQLQQPGSELVRPGASVKLSCKASGYTFTSYWMHWVKQRPGQGLEWIGNIYPRSGTTNYDGYFKSKATLTVDTSSSTAYMQLSSLTSEDSAVYFCTRSGYDYPFVYWGQGTLVTVSA
VL: QAVVTQESALTTSPGETVTLTCRTSTGAVSIRNYANWVQEKPDHLFTGLIGGTNNRAPGVPARFSGSLIGDKAALTITGAQPEDEAIYFCALLYSNYWVFGGGTKLTVL
notes: Murine hybridoma antibody from Balb/c mice immunised with the KLH-conjugated CD44v6 glycopeptide; It was detected with anti-mouse IgG Fc-gamma, and used as purified mAb or as hybridoma supernatant; also called 4C8 mAb; mAb 4C8
Take B2: the Kd in assay [2] is 128 nM; in assay [3], 6.4 nM; in assay [4] it was 7.9 nM; in assay [5], greater than 400 nM.

B3: 1D12 monoclonal antibody (antibody, V domains shown)
VH: DVQLVESGGGLVQPGGSRKLSCAASGFTFSSFGIHWVRQAPEKGLEWVAYISSGSSTIYYADTVKGRFTISRDNPKNTLFLQMTSLRSEDTAMYYCARGSKVVAKSRGYWYFDVWGAGTTVTVSS
VL: DVVVTQTPLFLPVSFGDQVSISCRSSQSLANNYGITYLSWYLHRPGQSPQLLIYGISNRFSGVPDRFSGSGSGTDFTLKISTIKPEDLGMYYCLQGTHQPWTFGGGTKLEIK
notes: Murine hybridoma antibody
In the case of B3, in assay [1], the binding result is listed as “binds”.

B4: 10H4 monoclonal antibody (antibody, V domains shown)
VH: QSLEESGGRLVTPGTPLTLTCTASGFTINTYHMGWFRQAPGKGLQYIGIVSHDVGTYYATWAKGRFTISKTSSTTVDLRMPSPTTEDTATYICARGPGYWTFNLWGQGTLVTVSS
VL: AQVLTQTPASVSAAVGGTVTINCQASQSVYNNNQLSWYQQKPGQPLKQLIYKASTLASGVPSRFKGSGSGSQFTLTISDLECDDAATYFCAGGYKGDIHPFGGGTEVVVK
notes: Rabbit antibody
For B4, the binding result in assay [1] is recorded as “binds”.

B5: 2B2 monoclonal antibody (antibody, V domains shown)
VH: EVQLVESGGGLVKPGGSLKLSCAASGFTFSSYAMSWVRQSPERRLEWVAEISSGGSYTYYPDTVTGRFTISRDNAKNTLYLEMSSLRSEDTAMYYCARTVGEDWYFDVWGAGTTVTVSS
VL: DIQMTQTTSSLSASLGDRVTISCRASQDISHYLNWYQQKPDGAVKLLIYSTSRLHSGVPSRFSGSGSGTDYSLTISNLEQEDIATYFCQQGYTLPFTFGSGTKLEIK
notes: Murine hybridoma antibody
B5: in assay [1], the binding result is given as “binds”.
